Patent US20160083466A1

Biological target: human IL-25 expressed with a C-terminal myc-myc-hexahistidine tag (human)
Assay: competition ELISA, 2 nM hIL-25-MMH binding to coated hIL-17RB-hFc; IC50 cell printed 'Non-blocker'

Sequence of human IL-25 expressed with a C-terminal myc-myc-hexahistidine tag (human) (chain, as listed by the source): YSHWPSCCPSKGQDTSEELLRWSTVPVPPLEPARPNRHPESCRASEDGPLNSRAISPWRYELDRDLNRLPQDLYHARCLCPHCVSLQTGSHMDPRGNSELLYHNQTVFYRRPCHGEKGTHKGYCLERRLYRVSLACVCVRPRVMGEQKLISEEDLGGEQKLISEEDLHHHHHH

| % Maximum blocking of 200 nM antibody [%] | Substance |
| --- | --- |
| -31 | hIgG4 isotype control (antibody) |
| -45 | mIgG2a isotype control (antibody) |
